In patent US20110033951, “ASSAY METHOD AND KIT FOR NUCLEIC ACID BINDING PROTEIN” (Hiroshima University, published 2011):

Columns and labels:
[1] = biological target: T1, NF-kappaB p50 (Homo sapiens, UniProt P19838 P19838:1-433); test: competition; SP1 decoy did not affect NF-kB/DNA signal; conditions: tags: Promega; chain copies: 2
Description: (§1) A mixed solution of 31F/42 and 05C/08 (40 fmol each), 800 fmol of the decoy (NF01/02 or SP01/02), a solution of a protein mixture (2.5 pmol of recombinant human SP1 and 0.125 pmol of recombinant human NFκB p50) were mixed into a reaction solution (10 mM HEPES-NaOH pH 7.9, 50 mM KCl, 0.1 mM EDTA, 5 mM DTT, 10% glycerol, 0.05% IGEPAL CA-630, 15 μL) and reacted at 25° C. for 30 minutes. A mixed solution of 32D/41 and 06B/07 (80 fmol each) was added thereto, and 50 μL of the resulting mixture was then reacted at 25° C. for 120 minutes. The fluorescence values of fluorescein and Cy3 were measured using a fluorescence plate reader Ultra (Tecan Group Ltd.). The fluorescein was excited at 485 nm, and its fluorescence was measured at 535 nm. The Cy3 was excited at 535 nm and its fluorescence was measured at 595 nm.

[2] = biological target: T2, SP1 (Homo sapiens, UniProt P08047 P08047:2-785); test: competition; decoy lowered only SP1/DNA signal; conditions: tags: Promega
Description: as §1

[3] = biological target: T1, NF-kappaB p50; test: competition; decoy without NF-kB site did not compete; conditions: tags: Promega; chain copies: 2
Description: (§2) The fluorescence value was measured using a real-time PCR apparatus Rotor-Gene 2000 (Corbett Life Science).

[4] = biological target: T1, NF-kappaB p50; test: competition; decoy restored strand exchange; conditions: tags: Promega; chain copies: 2
Description: as §2

[5] = biological target: T2, SP1; test: competition; NF-kB decoy did not affect SP1/DNA signal; conditions: tags: Promega
Description: as §1

T1 sequence (P19838 1-433, one chain of several): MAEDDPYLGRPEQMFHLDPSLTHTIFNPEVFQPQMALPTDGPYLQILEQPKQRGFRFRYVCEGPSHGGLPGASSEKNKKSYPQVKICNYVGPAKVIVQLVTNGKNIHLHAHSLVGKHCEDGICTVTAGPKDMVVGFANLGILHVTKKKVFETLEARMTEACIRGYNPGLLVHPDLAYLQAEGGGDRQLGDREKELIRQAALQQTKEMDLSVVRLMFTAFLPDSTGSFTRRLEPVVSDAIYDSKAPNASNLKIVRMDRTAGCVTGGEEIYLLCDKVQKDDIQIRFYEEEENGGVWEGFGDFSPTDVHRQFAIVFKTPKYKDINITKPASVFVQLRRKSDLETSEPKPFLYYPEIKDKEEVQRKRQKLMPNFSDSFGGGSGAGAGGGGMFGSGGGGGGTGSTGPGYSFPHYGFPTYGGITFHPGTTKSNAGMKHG
T2 sequence (P08047 2-785, one chain of several): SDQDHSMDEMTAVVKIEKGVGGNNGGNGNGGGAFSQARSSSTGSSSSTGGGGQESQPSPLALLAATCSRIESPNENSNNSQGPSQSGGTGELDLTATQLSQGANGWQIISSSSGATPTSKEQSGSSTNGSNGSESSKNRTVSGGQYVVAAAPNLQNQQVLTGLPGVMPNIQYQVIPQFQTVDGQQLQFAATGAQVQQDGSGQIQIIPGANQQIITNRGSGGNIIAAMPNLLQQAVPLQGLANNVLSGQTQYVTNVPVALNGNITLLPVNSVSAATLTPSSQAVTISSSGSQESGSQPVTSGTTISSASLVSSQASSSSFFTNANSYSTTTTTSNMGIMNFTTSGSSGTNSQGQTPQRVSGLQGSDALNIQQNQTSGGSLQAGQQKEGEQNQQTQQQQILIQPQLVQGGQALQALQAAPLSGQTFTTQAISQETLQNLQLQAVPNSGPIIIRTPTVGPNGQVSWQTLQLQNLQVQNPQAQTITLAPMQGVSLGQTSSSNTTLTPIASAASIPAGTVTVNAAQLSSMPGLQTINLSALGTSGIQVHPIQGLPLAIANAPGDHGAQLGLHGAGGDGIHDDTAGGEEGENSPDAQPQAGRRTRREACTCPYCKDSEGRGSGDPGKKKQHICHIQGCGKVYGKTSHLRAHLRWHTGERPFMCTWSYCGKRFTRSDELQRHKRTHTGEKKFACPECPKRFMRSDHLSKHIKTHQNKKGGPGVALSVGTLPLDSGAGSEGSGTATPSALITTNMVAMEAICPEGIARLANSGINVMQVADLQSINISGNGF

B1: SP01/02 decoy (dsDNA)
DNA 1: TCGAGCGGGGCGGGGCGACGAA
DNA 2: TTCGTCGCCCCGCCCCGCTCGA
B1: no binding [1]; binds [2].

B2: APcpt decoy (dsDNA)
DNA 1: GGTGTCATGAGTCAGCTCGGAG
DNA 2: CTCCGAGCTGACTCATGACACC
B2: no binding [3].

B3: NFcpt decoy (NF01/02) (dsDNA)
DNA 1: GCACTAGGGACTTTCCGCCACG
DNA 2: CGTGGCGGAAAGTCCCTAGTGC
B3: binds [4]; no binding [5].
